# Laboratory results: IntAct's records for PubMed 28712572
# Biological target: gbrap_human GABARAP (UniProt O95166)
# Sequence (O95166 whole entry): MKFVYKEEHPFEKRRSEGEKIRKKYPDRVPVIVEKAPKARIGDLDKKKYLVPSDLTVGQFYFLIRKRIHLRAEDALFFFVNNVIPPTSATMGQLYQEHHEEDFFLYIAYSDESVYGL
row,effect of a mutation on the interaction,Substance
1,with no effect,"Pericentriolar material 1 protein (Homo sapiens), Q15154 L1971Q"
2,with no effect,"Pericentriolar material 1 protein (Homo sapiens), Q15154 L1971R"
3,with no effect,"Pericentriolar material 1 protein (Homo sapiens), Q15154 L1971S"
4,with no effect,"Pericentriolar material 1 protein (Homo sapiens), Q15154 L1971T"
5,with no effect,"Pericentriolar material 1 protein (Homo sapiens), Q15154 L1971V"
6,with no effect,"Pericentriolar material 1 protein (Homo sapiens), Q15154 L1971W"
7,with no effect,"Pericentriolar material 1 protein (Homo sapiens), Q15154 L1971Y"
8,with no effect,"Pericentriolar material 1 protein (Homo sapiens), Q15154 L1973A"
9,with no effect,"Pericentriolar material 1 protein (Homo sapiens), Q15154 L1973C"
10,with no effect,"Pericentriolar material 1 protein (Homo sapiens), Q15154 L1973D"
11,with no effect,"Pericentriolar material 1 protein (Homo sapiens), Q15154 L1973E"
12,with no effect,"Pericentriolar material 1 protein (Homo sapiens), Q15154 L1973F"
13,with no effect,"Pericentriolar material 1 protein (Homo sapiens), Q15154 L1973G"
14,with no effect,"Pericentriolar material 1 protein (Homo sapiens), Q15154 L1973H"
15,with no effect,"Pericentriolar material 1 protein (Homo sapiens), Q15154 L1973I"
16,with no effect,"Pericentriolar material 1 protein (Homo sapiens), Q15154 L1973K"
17,with no effect,"Pericentriolar material 1 protein (Homo sapiens), Q15154 L1973M"
18,with no effect,"Pericentriolar material 1 protein (Homo sapiens), Q15154 L1973N"
19,with no effect,"Pericentriolar material 1 protein (Homo sapiens), Q15154 L1973P"
20,with no effect,"Pericentriolar material 1 protein (Homo sapiens), Q15154 L1973Q"
21,with no effect,"Pericentriolar material 1 protein (Homo sapiens), Q15154 L1973R"
22,with no effect,"Pericentriolar material 1 protein (Homo sapiens), Q15154 L1973S"
23,with no effect,"Pericentriolar material 1 protein (Homo sapiens), Q15154 L1973T"

row,effect of a mutation on the interaction,Substance
1,with no effect,"Pericentriolar material 1 protein (Homo sapiens), Q15154 L1973V"
2,with no effect,"Pericentriolar material 1 protein (Homo sapiens), Q15154 L1973W"
3,with no effect,"Pericentriolar material 1 protein (Homo sapiens), Q15154 L1973Y"
4,with no effect,"Pericentriolar material 1 protein (Homo sapiens), Q15154 N1953A"
5,with no effect,"Pericentriolar material 1 protein (Homo sapiens), Q15154 N1953C"
6,with no effect,"Pericentriolar material 1 protein (Homo sapiens), Q15154 N1953D"
7,with no effect,"Pericentriolar material 1 protein (Homo sapiens), Q15154 N1953E"
8,with no effect,"Pericentriolar material 1 protein (Homo sapiens), Q15154 N1953F"
9,with no effect,"Pericentriolar material 1 protein (Homo sapiens), Q15154 N1953G"
10,with no effect,"Pericentriolar material 1 protein (Homo sapiens), Q15154 N1953H"
11,with no effect,"Pericentriolar material 1 protein (Homo sapiens), Q15154 N1953I"
12,with no effect,"Pericentriolar material 1 protein (Homo sapiens), Q15154 N1953K"
13,with no effect,"Pericentriolar material 1 protein (Homo sapiens), Q15154 N1953L"
14,with no effect,"Pericentriolar material 1 protein (Homo sapiens), Q15154 N1953M"
15,with no effect,"Pericentriolar material 1 protein (Homo sapiens), Q15154 N1953P"
16,with no effect,"Pericentriolar material 1 protein (Homo sapiens), Q15154 N1953Q"
17,with no effect,"Pericentriolar material 1 protein (Homo sapiens), Q15154 N1953R"
18,with no effect,"Pericentriolar material 1 protein (Homo sapiens), Q15154 N1953S"
19,with no effect,"Pericentriolar material 1 protein (Homo sapiens), Q15154 N1953T"
20,with no effect,"Pericentriolar material 1 protein (Homo sapiens), Q15154 N1953V"
21,with no effect,"Pericentriolar material 1 protein (Homo sapiens), Q15154 N1953W"
22,with no effect,"Pericentriolar material 1 protein (Homo sapiens), Q15154 N1953Y"
23,decreasing interaction strength,"Pericentriolar material 1 protein (Homo sapiens), Q15154 P1970A"

row,effect of a mutation on the interaction,Substance
1,with no effect,"Pericentriolar material 1 protein (Homo sapiens), Q15154 P1970C"
2,decreasing interaction strength,"Pericentriolar material 1 protein (Homo sapiens), Q15154 P1970D"
3,decreasing interaction strength,"Pericentriolar material 1 protein (Homo sapiens), Q15154 P1970E"
4,with no effect,"Pericentriolar material 1 protein (Homo sapiens), Q15154 P1970F"
5,decreasing interaction strength,"Pericentriolar material 1 protein (Homo sapiens), Q15154 P1970G"
6,with no effect,"Pericentriolar material 1 protein (Homo sapiens), Q15154 P1970H"
7,decreasing interaction strength,"Pericentriolar material 1 protein (Homo sapiens), Q15154 P1970I"
8,disrupting interaction strength,"Pericentriolar material 1 protein (Homo sapiens), Q15154 P1970K"
9,decreasing interaction strength,"Pericentriolar material 1 protein (Homo sapiens), Q15154 P1970L"
10,decreasing interaction strength,"Pericentriolar material 1 protein (Homo sapiens), Q15154 P1970M"
11,decreasing interaction strength,"Pericentriolar material 1 protein (Homo sapiens), Q15154 P1970N"
12,decreasing interaction strength,"Pericentriolar material 1 protein (Homo sapiens), Q15154 P1970Q"
13,decreasing interaction strength,"Pericentriolar material 1 protein (Homo sapiens), Q15154 P1970R"
14,disrupting interaction strength,"Pericentriolar material 1 protein (Homo sapiens), Q15154 P1970S"
15,disrupting interaction strength,"Pericentriolar material 1 protein (Homo sapiens), Q15154 P1970T"
16,disrupting interaction strength,"Pericentriolar material 1 protein (Homo sapiens), Q15154 P1970V"
17,with no effect,"Pericentriolar material 1 protein (Homo sapiens), Q15154 P1970W"
18,disrupting interaction strength,"Pericentriolar material 1 protein (Homo sapiens), Q15154 P1970Y"
19,with no effect,"Pericentriolar material 1 protein (Homo sapiens), Q15154 Q1956A"
20,with no effect,"Pericentriolar material 1 protein (Homo sapiens), Q15154 Q1956C"
21,with no effect,"Pericentriolar material 1 protein (Homo sapiens), Q15154 Q1956D"
22,with no effect,"Pericentriolar material 1 protein (Homo sapiens), Q15154 Q1956E"
23,with no effect,"Pericentriolar material 1 protein (Homo sapiens), Q15154 Q1956F"
